This note sets out measurements from paper PMC4692482, “Structure and Stability of the Dimeric Triosephosphate Isomerase from the Thermophilic Archaeon Thermoplasma acidophilum” (PLoS ONE, 2015).

The series deals with the molecule itself. As to the kind of experiment: AUC; equilibrium sedimentation, 20 mM Tris-HCl pH 7.5, 200 mM NaCl, 20°C, 20,000 and 26,000 rpm, 12.6, 16.8 and 21.0 uM protein; data fit a homogeneous dimer model; reversible monomer-dimer and monomer-trimer models rejected.

B1: triosephosphate isomerase from Thermoplasma acidophilum (enzyme, UniProt Q9HLB6 1-216, looked up)
chain: MYTAIVNLKTYREATGANFTRFMEKFEPVQGKFELIFSPSLLDLEKAAKCGKFRFFAQHVDAEPYGAYTGHVPMDMMIDLGITGSILNHSERRLPRDTIINTLKKASKLDFTIVLCVENAEEAKYFREYEPDFIAYEPRDLIGGDVSVSTAKPEIIEDIVKIYEGTGTSVLVGAGIKTGEDVRRSIGLGARGILVASGVVKSADPTKSLNSLIELK
notes: Cloned into pET-28a(+) with a C-terminal His6-tag; no tag removal is described; The monomer mass used for AUC is 24,671 daltons; The crystals with glycerol-3-phosphate (G3P) hold the same protein; also called TaTPI; apo-TaTPI; source: E. coli Rosetta 2(DE3)pLysS, purified (heat step 60°C, HiTrap Chelating, SEC, anion exchange, SEC)
One may read the stoichiometry N as the number of molecules, sites or subunits per partner or assembly. For B1, the “stoichiometry N” value is 2.
